The values that follow are results of earlier work, collected in PMC7417478.

The target of one data set is FGFR2 (Homo sapiens) (UniProt P21802).
The target in a further data set is FGFR1 (Homo sapiens) (UniProt P11362).

pKd: −log10 of the molar value.

Sequence of UniProt P21802 (P21802 22-377): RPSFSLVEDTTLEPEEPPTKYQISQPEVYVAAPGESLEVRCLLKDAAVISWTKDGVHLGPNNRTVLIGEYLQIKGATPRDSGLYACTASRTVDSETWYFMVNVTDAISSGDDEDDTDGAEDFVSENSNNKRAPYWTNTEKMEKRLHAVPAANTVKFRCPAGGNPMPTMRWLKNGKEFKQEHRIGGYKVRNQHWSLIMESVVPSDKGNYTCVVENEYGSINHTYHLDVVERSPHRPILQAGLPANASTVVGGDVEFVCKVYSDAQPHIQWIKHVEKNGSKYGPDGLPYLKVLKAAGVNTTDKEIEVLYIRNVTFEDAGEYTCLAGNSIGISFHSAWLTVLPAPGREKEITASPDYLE
Sequence of UniProt P11362 (P11362 22-376): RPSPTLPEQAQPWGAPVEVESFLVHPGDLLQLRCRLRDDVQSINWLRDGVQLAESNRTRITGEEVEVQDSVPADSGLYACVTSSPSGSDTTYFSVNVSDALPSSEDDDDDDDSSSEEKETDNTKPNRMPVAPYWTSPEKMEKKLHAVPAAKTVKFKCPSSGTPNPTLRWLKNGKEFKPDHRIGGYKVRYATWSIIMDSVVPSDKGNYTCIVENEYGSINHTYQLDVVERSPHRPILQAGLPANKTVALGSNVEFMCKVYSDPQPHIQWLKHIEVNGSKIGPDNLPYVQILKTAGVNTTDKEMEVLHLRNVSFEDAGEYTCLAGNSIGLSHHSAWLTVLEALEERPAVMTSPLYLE

For FGF5 (from UniProt P12034), the pKd with FGFR2 (Homo sapiens) and in the data set with FGFR1 (Homo sapiens) was 9.00 in each case.
